# Experimental data taken from paper PMC12397995 (Blood, 2025).
# B1: Fab fragment of the non-inhibitory anti-TF antibody 10H10 (Fab, V domains shown)
# VH: QVHLQQSGAELMKPGASVKISCKASGYTFITYWIEWVKQRPGHGLEWIGDILPGSGSTNYNENFKGKATFTADSSSNTAYMQLSSLTSEDSAVYYCARSGYYGNSGFAYWGQGTLVTVSA
# VL: DIVMTQSPSSLTVTAGEKVTMSCKSSQSLLSSGNQKNYLTWYQQIPGQPPKLLIYWASTRESGVPDRFTGSGSGTDFTLTINSVQAEDLAVYYCQNDYTYPLTFGAGTKLELK
# B2: Recombinant, membrane-anchored tissue factor (TF residues 3–244) fused to E. coli maltose-binding protein (receptor, UniProt P13726 35-276, looked up)
# chain: TTNTVAAYNLTWKSTNFKTILEWEPKPVNQVYTVQISTKSGDWKSKCFYTTDTECDLTDEIVKDVKQTYLARVFSYPAGNVESTGSAGEPLYENSPEFTPYLETNLGQPTIQSFEQVGTKVNVTVEDERTLVRRNNTFLSLRDVFGKDLIYTLYYWKSSSSGKKTAKTNTNEFLIDVDKGENYCFSVQAVIPSRTVNRKSTDSPVECMGQEKGEFREIFYIIGAVVFVVIILVIILAISLHK
# Tests used:
# [1] = molecular target: Recombinant, membrane-anchored tissue factor (TF residues 3–244) fused to E. coli maltose-binding protein (UniProt P13726); assay: cryo-EM structure
# [2] = molecular target: T1, Factor VIIa (UniProt P08709 61-212; P08709 213-466, gamma-carboxyglutamate (γ35 printed; GLA domain)); assay: cryo-EM structure
# T1 sequence (looked up) 1: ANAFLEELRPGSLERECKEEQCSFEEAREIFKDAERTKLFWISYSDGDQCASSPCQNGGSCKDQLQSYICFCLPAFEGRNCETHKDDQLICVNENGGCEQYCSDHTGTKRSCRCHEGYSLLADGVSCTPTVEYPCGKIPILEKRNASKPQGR
# T1 sequence (looked up) 2: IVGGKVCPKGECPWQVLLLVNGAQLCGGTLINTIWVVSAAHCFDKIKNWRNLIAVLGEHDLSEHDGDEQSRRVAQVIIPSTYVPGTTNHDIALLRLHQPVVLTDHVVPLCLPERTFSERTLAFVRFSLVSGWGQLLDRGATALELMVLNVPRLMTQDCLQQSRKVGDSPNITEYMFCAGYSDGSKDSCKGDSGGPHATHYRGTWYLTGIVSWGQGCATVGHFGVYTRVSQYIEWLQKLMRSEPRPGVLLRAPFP
Binder,binding result [1],binding result [2]
B1,binds,–
B2,–,binds
